Test results taken from PMC7308080, “The His-Gly motif of acid-sensing ion channels resides in a reentrant ‘loop’ implicated in gating and ion selectivity” (eLife, 2020).

Target: the molecule itself
Test: cryo-EM structure; single-particle cryo-EM of purified cASIC1-SMA at ~1 mg/ml, pH adjusted to 7.0 with MES pH 6.0, TBS with 1 mM DTT; low pH desensitized state; C3 symmetry in the final refinement

B1: full-length chicken acid-sensing ion channel 1 (cASIC1) solubilized in styrene maleic acid copolymer (natural protein, Gallus gallus (chicken), UniProt Q1XA76 1-527, looked up)
chain: MMDLKVDEEEVDSGQPVSIQAFASSSTLHGISHIFSYERLSLKRVVWALCFMGSLALLALVCTNRIQYYFLYPHVTKLDEVAATRLTFPAVTFCNLNEFRFSRVTKNDLYHAGELLALLNNRYEIPDTQTADEKQLEILQDKANFRNFKPKPFNMLEFYDRAGHDIREMLLSCFFRGEQCSPEDFKVVFTRYGKCYTFNAGQDGKPRLITMKGGTGNGLEIMLDIQQDEYLPVWGETDETSFEAGIKVQIHSQDEPPLIDQLGFGVAPGFQTFVSCQEQRLIYLPPPWGDCKATTGDSEFYDTYSITACRIDCETRYLVENCNCRMVHMPGDAPYCTPEQYKECADPALDFLVEKDNEYCVCEMPCNVTRYGKELSMVKIPSKASAKYLAKKYNKSEQYIGENILVLDIFFEALNYETIEQKKAYEVAGLLGDIGGQMGLFIGASILTVLELFDYAYEVIKHRLCRRGKCRKNHKRNNTDKGVALSMDDVKRHNPCESLRGHPAGMTYAANILPHHPARGTFEDFTC
notes: the final models contain residues 17-462; Homotrimer in SMA copolymer with endogenous lipids; Expression is 'as previously described (Yoder et al., 2018a)'; also called cASIC1-SMA; SMA-cASIC1a
stoichiometry N: 3
